Data as given in IntAct's records for PubMed 22474355.

B1: RNA-silencing factor ers1 (Schizosaccharomyces pombe (strain ATCC 38366 / 972)), O94717 (parent)
chain: MGKVSANNQSGFFKFYIDTALLLNAEFISSFTNCINSEYNGKVKISYSSSSQQFKVIVYEEHKREAFSLFEEIVQKLKRESTVYKKPRLDIHPFGQLHYDFTTLLNFQRYLDLGYGIEDVKIKENEDIVKSKVGKKPTSSDFYIPCLIKPKIITPFEWEGNFKQVIYSPTVYNGSFKRLFYLPDNNDLLKEFAHATNTKYKASLKDNKIVVLANNDQDINAMLEKMKHIENLVSQKVYEYPEETLVYAGKIAPCQLKFLKLKFENEILYTAMHTTSIFKSVFNILGSFYTMRLLRNKHDGDSYELVPVFAKNPSKTPPCNDNFKIFSDDIKLIGCKIFAGVSLNFSSPKPAHRFYELNKTSSNLSIPVLQKPSNFHSSSTELSDNSIHQGRRAVDPVVNQNNPSNFEEMIMNKLNKLPTIDKQILGTSSLTHFQDKTTAIEHSINKSNSKQPPRFKFQLPPRPTSNTLPLEPEEELVTRYSVSSDGNTVDEAITKQSQTFQLVNSNEFNEVNANDVHKSLRQNCAKLDFDDSKSKNLLSVECLELDKGSDCSTPKSGSLTPSIDMKFLRLQDEKMDDLGDNYYTILMSSNPVSSYGVGSLYLFQPKIVCSEKYINHEEIDNMNLKSLHRWLSRSLHVLQSFSGEIELNLEFGVILYPNISSDVSACSHGFMNIYKDLNLPRSYFADCITKSVSNIDSLLNTPVKILFGRTEYTYPLIEHEVLDSKNYFVFKGSLLFTDDKRNKTEDSTVFFSMICSSKLDQFAFYKDSKQSSTCTINFPLALWDSRLRIETKVPLNDAILTEFSKSIRFRNVNKDLLLVFGNMEDRVIIHSVTRINENSVPFNKNLLPHSLEFILKCSKVKSYDISPSSINSKEAFVCLDRSKESKPIESCFSLSIQSVYMQSQFKYNNSIRAGETAPWKLANKQFIGGAITENVSDLYTAAIIMVNQLGGIHPTI
partner: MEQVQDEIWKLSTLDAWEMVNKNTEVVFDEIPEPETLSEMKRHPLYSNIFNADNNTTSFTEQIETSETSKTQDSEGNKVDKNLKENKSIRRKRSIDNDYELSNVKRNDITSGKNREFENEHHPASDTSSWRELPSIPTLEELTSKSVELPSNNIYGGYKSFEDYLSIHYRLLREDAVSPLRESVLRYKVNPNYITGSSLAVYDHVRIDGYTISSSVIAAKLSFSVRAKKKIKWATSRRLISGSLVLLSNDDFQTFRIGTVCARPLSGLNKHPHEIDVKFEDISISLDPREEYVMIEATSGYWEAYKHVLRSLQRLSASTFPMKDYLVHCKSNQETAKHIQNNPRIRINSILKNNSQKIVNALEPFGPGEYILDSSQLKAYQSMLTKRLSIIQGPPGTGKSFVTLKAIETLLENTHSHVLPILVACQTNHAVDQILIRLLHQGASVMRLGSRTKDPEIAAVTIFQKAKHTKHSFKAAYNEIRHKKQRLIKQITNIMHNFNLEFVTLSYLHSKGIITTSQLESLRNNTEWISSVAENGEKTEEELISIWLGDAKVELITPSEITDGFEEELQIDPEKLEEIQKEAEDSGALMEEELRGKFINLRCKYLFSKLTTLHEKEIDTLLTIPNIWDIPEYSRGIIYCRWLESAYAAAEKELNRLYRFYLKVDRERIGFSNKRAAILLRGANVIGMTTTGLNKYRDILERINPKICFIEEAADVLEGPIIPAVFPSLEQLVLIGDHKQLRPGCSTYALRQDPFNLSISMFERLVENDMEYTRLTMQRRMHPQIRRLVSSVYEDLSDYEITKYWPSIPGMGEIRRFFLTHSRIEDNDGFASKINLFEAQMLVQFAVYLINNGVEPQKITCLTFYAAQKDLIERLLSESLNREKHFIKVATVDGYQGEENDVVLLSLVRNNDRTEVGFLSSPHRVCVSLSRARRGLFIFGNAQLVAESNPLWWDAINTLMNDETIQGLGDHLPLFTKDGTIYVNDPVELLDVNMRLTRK
B2: RNA-silencing factor ers1 (Schizosaccharomyces pombe (strain ATCC 38366 / 972)), O94717 (parent)
chain: B1 chain
partner: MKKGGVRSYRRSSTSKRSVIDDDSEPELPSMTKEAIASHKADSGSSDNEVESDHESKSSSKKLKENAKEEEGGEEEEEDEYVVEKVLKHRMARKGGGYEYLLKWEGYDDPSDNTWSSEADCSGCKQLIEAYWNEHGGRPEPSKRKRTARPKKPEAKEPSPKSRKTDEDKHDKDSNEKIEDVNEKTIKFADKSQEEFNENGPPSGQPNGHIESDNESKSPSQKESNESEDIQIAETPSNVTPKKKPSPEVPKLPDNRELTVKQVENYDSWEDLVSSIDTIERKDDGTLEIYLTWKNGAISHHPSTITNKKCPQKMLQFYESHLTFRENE

Variants of: B1
Conditions: with hrr1_schpo hrr1, O74465

Variant | effect of a mutation on the interaction
S234P | decreasing interaction strength

Variants of: B2
Conditions: with swi6_schpo swi6, P40381

Variant | effect of a mutation on the interaction
S234P | decreasing interaction strength
